Test results reported in PMC8307404, “Crystal Structure-Guided Design of Bisubstrate Inhibitors and Photoluminescent Probes for Protein Kinases of the PIM Family” (Molecules, 2021).
Square brackets hold non-standard residues; d marks the D form. Peptide text beside a SMILES is read from it. * marks the point of attachment. X3 = O=C(CCCCCNCc1nc2c(sc3cc(Br)cnc32)c(=O)[nH]1)*

Experiments:
Assay in all cases: Kinase profiling (radiometric filter-binding)
Format in all cases: biochemical
JAK2 = JAK2 (Homo sapiens, UniProt O60674); details: JAK2, 1 µM inhibitor; read-out: Residual activity, %
How it was run: (§1)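 Activity remaining (% of control without inhibitor) at 1 µM final compound; human kinases, ATP ≤ KM, radiometric filter binding.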

MLK1 = MLK1 (Homo sapiens, UniProt P80192); details: MLK1, 1 µM inhibitor; read-out: Residual activity, %
How it was run: as §1

NUAK1 = molecular target: T1, NUAK1 (Homo sapiens, UniProt O60285); details: NUAK1, 1 µM inhibitor; read-out: Residual activity, %
T1 sequence (O60285 1-661): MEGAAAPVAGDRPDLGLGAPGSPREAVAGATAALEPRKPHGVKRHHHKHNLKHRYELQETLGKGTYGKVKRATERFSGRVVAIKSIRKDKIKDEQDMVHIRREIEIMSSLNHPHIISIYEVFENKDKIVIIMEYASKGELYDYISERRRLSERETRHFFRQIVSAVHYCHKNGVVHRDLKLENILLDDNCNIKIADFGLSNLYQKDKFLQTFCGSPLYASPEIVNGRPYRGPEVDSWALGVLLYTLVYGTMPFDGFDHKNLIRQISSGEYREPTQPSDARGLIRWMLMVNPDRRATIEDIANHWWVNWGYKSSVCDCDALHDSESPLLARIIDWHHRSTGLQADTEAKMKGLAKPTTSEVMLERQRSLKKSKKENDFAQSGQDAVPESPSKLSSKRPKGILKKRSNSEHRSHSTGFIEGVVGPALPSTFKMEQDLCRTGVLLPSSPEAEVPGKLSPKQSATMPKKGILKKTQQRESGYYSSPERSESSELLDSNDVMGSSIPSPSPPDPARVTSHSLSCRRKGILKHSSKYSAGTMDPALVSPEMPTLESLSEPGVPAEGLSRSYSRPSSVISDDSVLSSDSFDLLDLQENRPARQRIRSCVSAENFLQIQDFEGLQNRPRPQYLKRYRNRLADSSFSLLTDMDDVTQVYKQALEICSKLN
How it was run: as §1

PAK5 = PAK5 (Homo sapiens, UniProt Q9P286); details: PAK5, 1 µM inhibitor; read-out: Residual activity, %
How it was run: as §1

PIM2 = PIM2 (Homo sapiens, UniProt Q9P1W9); details: PIM2, 1 µM inhibitor; read-out: Residual activity, %
How it was run: as §1

PLK1 = PLK1 (Homo sapiens, UniProt P53350); details: PLK1, 1 µM inhibitor; read-out: Residual activity, %
How it was run: as §1

PRAK = molecular target: T2, PRAK (Homo sapiens, UniProt Q8IW41); details: 1 µM inhibitor, read-out: Residual activity, %
T2 sequence (Q8IW41 1-473): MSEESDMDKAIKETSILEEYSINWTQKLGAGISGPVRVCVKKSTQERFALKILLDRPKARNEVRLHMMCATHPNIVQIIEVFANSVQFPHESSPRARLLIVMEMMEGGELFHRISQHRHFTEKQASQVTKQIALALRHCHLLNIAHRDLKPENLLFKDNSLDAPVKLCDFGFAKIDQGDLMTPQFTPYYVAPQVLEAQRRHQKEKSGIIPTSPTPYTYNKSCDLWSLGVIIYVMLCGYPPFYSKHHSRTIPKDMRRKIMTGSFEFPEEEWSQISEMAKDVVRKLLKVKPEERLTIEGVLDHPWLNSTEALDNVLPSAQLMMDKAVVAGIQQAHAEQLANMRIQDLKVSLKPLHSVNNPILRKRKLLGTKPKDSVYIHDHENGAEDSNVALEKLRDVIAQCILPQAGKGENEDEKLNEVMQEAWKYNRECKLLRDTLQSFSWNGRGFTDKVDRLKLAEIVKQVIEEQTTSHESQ
How it was run: as §1

RSK2 = RSK2 (Homo sapiens, UniProt P51812); details: RSK2, 1 µM inhibitor; read-out: Residual activity, %
How it was run: as §1

TAK1 = molecular target: T3, TAK1 (Homo sapiens, UniProt O43318); details: TAK1, 1 µM inhibitor; read-out: Residual activity, %
T3 sequence (O43318 1-303 limits assumed): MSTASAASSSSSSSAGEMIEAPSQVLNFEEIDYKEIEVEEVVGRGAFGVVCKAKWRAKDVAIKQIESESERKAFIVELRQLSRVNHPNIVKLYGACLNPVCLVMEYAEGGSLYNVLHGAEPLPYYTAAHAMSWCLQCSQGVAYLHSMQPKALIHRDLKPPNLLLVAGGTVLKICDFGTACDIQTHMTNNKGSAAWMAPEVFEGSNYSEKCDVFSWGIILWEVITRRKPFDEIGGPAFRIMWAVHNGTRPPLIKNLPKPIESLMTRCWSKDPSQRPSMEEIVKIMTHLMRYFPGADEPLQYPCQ
How it was run: as §1

VEG-FR = molecular target: T4, VEG-FR (Homo sapiens, UniProt P17948); details: 1 µM inhibitor, read-out: Residual activity, %
T4 sequence (P17948 784-1338 limits assumed): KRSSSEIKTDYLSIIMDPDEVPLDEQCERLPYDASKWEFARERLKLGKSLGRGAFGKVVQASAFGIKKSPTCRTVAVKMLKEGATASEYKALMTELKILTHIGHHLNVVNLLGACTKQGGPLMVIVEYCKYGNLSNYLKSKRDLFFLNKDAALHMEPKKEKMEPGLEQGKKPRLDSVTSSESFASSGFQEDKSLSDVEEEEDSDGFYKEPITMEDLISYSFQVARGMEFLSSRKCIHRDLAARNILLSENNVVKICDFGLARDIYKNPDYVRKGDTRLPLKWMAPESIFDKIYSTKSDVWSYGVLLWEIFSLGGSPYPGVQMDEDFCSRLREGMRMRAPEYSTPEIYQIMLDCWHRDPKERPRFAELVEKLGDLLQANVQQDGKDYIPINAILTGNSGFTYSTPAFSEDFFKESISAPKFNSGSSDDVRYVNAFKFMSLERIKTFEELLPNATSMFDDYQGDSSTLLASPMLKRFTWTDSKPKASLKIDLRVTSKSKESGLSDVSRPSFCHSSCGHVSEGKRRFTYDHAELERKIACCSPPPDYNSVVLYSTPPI
How it was run: as §1

p38 MAPK = p38 MAPK (Homo sapiens, UniProt Q16539); details: first of four lines (Greek letter lost), 1 µM inhibitor, read-out: Residual activity, %
How it was run: as §1

JAK2, sequence (O60674 whole entry): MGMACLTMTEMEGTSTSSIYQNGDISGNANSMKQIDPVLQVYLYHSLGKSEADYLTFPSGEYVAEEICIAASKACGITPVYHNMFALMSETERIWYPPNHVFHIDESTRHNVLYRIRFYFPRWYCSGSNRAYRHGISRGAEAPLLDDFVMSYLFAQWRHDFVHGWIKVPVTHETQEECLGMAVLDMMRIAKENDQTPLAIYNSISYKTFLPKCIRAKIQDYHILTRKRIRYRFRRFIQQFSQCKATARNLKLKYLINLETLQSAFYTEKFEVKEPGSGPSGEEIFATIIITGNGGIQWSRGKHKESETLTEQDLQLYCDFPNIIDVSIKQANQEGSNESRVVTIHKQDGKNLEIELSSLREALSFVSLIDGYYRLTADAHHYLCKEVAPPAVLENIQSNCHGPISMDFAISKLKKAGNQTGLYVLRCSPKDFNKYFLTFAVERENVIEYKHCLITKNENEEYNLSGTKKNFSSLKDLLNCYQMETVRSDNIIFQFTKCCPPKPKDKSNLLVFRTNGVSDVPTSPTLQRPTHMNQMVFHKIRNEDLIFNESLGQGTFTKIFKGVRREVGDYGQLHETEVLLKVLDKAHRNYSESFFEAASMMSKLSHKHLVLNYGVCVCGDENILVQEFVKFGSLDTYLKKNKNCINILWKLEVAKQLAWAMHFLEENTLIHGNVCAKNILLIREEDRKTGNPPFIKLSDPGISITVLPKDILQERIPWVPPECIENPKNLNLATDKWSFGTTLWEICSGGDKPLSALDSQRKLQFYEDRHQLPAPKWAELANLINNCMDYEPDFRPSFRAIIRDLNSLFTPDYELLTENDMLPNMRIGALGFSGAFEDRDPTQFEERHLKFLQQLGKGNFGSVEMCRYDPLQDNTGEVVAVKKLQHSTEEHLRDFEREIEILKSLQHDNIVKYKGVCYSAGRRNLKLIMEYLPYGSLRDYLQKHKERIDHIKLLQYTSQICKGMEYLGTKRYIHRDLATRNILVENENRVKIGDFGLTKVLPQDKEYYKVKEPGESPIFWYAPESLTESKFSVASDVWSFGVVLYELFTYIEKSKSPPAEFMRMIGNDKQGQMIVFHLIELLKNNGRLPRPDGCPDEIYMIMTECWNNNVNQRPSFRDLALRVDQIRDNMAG
RSK2, sequence (P51812 whole entry): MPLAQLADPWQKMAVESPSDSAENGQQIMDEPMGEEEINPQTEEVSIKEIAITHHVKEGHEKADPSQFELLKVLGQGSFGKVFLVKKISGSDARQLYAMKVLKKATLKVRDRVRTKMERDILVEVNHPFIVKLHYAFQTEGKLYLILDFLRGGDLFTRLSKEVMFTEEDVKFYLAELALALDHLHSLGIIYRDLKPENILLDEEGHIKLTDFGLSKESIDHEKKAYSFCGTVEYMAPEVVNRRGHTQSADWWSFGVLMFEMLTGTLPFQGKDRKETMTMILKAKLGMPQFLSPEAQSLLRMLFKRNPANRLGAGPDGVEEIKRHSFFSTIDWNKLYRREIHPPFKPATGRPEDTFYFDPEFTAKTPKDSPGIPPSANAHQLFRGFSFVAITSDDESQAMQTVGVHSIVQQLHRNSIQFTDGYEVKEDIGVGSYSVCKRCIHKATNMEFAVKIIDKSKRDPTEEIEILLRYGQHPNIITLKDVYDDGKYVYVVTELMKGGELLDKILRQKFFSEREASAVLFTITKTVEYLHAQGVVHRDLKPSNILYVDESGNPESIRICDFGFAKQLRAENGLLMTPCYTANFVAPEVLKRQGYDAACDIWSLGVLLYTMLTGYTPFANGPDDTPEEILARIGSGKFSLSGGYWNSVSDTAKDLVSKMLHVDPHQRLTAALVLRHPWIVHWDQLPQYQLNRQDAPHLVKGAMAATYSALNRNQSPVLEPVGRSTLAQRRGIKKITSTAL
PLK1, sequence (P53350 whole entry): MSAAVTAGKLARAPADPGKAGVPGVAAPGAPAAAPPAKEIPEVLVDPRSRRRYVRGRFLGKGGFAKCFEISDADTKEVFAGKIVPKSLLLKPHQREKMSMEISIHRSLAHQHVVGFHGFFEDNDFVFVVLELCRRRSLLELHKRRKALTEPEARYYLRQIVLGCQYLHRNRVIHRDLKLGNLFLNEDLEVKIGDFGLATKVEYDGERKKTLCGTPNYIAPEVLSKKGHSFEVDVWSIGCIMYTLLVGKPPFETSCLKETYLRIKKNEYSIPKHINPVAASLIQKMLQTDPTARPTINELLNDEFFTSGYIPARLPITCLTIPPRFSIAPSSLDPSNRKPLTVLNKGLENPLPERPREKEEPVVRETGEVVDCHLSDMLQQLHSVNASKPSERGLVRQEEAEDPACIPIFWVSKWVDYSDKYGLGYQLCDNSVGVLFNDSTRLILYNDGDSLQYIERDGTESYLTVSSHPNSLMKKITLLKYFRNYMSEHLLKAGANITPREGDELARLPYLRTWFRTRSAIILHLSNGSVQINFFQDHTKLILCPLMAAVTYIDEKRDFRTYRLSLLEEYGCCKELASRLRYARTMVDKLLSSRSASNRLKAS
p38 MAPK, sequence (Q16539 whole entry): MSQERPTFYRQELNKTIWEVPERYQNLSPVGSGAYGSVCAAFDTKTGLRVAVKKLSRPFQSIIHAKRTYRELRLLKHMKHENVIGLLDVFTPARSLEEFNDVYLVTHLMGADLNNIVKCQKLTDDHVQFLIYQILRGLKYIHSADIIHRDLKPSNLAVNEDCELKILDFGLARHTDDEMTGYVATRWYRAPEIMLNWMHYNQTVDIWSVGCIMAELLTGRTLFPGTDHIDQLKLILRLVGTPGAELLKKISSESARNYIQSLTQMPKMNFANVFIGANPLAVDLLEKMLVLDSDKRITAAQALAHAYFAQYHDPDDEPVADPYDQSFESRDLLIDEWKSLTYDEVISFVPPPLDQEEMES
PIM2, sequence (Q9P1W9 whole entry): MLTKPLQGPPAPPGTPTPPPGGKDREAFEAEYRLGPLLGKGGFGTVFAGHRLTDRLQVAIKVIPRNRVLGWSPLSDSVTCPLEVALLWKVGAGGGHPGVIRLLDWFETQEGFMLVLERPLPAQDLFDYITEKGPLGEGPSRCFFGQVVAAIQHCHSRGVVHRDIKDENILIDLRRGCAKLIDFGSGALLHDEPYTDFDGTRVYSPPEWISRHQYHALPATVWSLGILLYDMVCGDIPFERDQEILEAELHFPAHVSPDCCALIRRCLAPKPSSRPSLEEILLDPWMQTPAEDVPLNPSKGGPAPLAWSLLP
PAK5, sequence (Q9P286 whole entry): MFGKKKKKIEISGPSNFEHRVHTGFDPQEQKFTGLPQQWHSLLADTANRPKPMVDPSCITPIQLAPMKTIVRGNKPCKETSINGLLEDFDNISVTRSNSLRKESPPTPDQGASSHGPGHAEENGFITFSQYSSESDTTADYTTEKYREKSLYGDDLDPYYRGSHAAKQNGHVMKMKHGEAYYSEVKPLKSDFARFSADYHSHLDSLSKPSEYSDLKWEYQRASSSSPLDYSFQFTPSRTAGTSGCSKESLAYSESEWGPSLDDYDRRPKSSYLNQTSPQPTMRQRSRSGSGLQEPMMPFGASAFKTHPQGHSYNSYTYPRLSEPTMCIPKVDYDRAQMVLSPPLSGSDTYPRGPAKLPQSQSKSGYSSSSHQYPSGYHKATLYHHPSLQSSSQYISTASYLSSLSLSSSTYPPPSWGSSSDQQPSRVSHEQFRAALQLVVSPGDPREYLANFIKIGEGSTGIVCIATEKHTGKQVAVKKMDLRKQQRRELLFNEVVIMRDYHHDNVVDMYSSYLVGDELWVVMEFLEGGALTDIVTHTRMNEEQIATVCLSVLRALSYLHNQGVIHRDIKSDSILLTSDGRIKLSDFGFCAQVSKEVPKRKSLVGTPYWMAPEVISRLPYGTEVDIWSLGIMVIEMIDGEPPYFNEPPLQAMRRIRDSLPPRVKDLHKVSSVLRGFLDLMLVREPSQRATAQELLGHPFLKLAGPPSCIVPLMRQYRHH
MLK1, sequence (P80192 whole entry): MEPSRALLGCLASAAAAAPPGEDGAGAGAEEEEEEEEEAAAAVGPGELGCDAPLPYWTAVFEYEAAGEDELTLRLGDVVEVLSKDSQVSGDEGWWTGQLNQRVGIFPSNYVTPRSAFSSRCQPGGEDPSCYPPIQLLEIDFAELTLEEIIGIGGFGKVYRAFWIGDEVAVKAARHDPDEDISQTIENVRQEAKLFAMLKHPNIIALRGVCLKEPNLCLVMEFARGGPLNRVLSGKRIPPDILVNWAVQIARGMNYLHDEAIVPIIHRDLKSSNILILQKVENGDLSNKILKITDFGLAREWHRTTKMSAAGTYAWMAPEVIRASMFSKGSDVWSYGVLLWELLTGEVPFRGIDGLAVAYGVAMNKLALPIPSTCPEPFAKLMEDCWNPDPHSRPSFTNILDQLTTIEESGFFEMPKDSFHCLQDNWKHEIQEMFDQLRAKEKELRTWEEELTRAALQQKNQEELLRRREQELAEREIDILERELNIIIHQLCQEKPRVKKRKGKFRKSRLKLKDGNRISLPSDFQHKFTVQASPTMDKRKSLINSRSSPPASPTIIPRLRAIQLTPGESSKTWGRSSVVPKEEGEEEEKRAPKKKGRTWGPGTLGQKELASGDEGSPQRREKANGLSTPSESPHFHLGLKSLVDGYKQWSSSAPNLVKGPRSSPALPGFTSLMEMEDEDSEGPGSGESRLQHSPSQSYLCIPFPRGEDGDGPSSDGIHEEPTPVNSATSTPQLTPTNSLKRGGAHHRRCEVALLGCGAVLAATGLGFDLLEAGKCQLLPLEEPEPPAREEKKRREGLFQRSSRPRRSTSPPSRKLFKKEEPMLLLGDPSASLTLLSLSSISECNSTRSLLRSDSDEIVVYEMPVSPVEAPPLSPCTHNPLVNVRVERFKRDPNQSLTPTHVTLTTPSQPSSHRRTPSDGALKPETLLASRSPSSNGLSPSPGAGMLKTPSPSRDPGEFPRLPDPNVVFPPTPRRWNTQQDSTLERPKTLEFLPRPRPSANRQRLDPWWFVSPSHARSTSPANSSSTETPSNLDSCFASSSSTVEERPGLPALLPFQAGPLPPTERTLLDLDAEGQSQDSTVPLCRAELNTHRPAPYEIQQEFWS

SMILES | remaining activity at 1 µM (JAK2) [%] | remaining activity at 1 µM (MLK1) [%] | remaining activity at 1 µM (NUAK1) [%] | remaining activity at 1 µM (PAK5) [%] | remaining activity at 1 µM (PIM2) [%] | remaining activity at 1 µM (PLK1) [%] | remaining activity at 1 µM (PRAK) [%] | remaining activity at 1 µM (RSK2) [%] | remaining activity at 1 µM (TAK1) [%] | remaining activity at 1 µM (VEG-FR) [%] | remaining activity at 1 µM (p38 MAPK) [%]
N=C(N)NCCC[C@@H](NC(=O)CCCCCNC(=O)Cn1cnc2c(I)c(I)c(I)c(I)c21)C(=O)N[C@H](CCCNC(=N)N)C(=O)N[C@H](CCCNC(=N)N)C(=O)N[C@H](CCCNC(=N)N)C(=O)N[C@H](CCCNC(=N)N)C(=O)N[C@H](CCCNC(=N)N)C(=O)N[C@H](CCCCN)C(N)=O [ARC-3125, TIBI-CH2-C(=O)-Ahx-(D-Arg)6-D-Lys-NH2] | 115 ± 5 | 100 ± 8 | 7 ± 15 | 25 ± 6 | 0 | 40 ± 4 | 112 ± 3 | 17 ± 1 | 9 ± 4 | 95 ± 41 | 53 ± 8
N=C(N)NCCC[C@@H](NC(=O)CCCCCNCc1nc2c(sc3cc(Br)cnc32)c(=O)[nH]1)C(=O)N[C@H](CCCNC(=N)N)C(=O)N[C@H](CCCNC(=N)N)C(=O)N[C@H](CCCNC(=N)N)C(=O)N[C@H](CCCNC(=N)N)C(=O)N[C@H](CCCNC(=N)N)C(=O)N[C@H](CCCCN)C(N)=O [ARC-3126, BPTP-Ahx-(D-Arg)6-D-Lys-NH2] (X3-[dR][dR][dR][dR][dR][dR][dK]-NH2) | 116 ± 9 | 122 ± 21 | 47 ± 7 | 89 ± 2 | 10 | 50 ± 16 | 97 ± 7 | 86 ± 15 | 88 ± 17 | 85 | 116 ± 4
N=C(N)NCCC[C@@H](NC(=O)CNC(=O)[C@@H](CCCNC(=N)N)NC(=O)[C@@H](CCCNC(=N)N)NC(=O)CCCCCCCNCc1nc2c(sc3cc(Br)cnc32)c(=O)[nH]1)C(=O)N[C@H](CCCCN)C(N)=O [Compound 1, BPTP-Aoc-(D-Arg)2-Gly-D-Arg-D-Lys-NH2] | 93 ± 14 | 112 ± 13 | 95 ± 14 | 112 ± 3 | 72 | 99 ± 1 | 104 ± 13 | 109 ± 11 | 107 ± 3 | 110 ± 9 | 113 ± 10
N=C(N)NCCC[C@@H](NC(=O)CNC(=O)[C@@H](CCCNC(=N)N)NC(=O)[C@@H](CCCNC(=N)N)NC(=O)CCCCCCCNCc1nc2c(sc3ccc(Br)cc32)c(=O)[nH]1)C(=O)N[C@H](CCCCN)C(N)=O [Compound 2, BBTP-Aoc-(D-Arg)2-Gly-D-Arg-D-Lys-NH2] | 82 ± 16 | 98 ± 8 | 102 ± 14 | 100 ± 2 | 7 ± 1 | 99 ± 1 | 89 | 92 ± 10 | 101 ± 1 | 96 ± 3 | 116 ± 10
N=C(N)NCCC[C@@H](NC(=O)CNC(=O)[C@@H](CCCNC(=N)N)NC(=O)[C@@H](CCCNC(=N)N)NC(=O)Cn1cc(CNCc2nc3c(sc4ccc(Br)cc43)c(=O)[nH]2)nn1)C(=O)N[C@H](CCCCN)C(N)=O [Compound 3, BBTP-Amt-(D-Arg)2-Gly-D-Arg-D-Lys-NH2] | 72 ± 21 | 101 ± 9 | 74 ± 6 | 92 ± 5 | 15 ± 1 | 97 ± 7 | 79 ± 7 | 106 ± 11 | 99 ± 10 | 90 ± 5 | 110 ± 7
